Results as given in US20110263454A1, “Methods of Identifying Functional Characteristics of Promoters, Transcription Modifying Proteins and Transcription Modulating Agents” (Salk Institute for Biological Studies, priority 2008, published 2011).

B1: RORg: RAR-related Orphan Receptor γ (NR1F3), cDNA driver (protein, UniProt P51449 1-518, looked up)
Nuclear receptor ROR-gamma: MDRAPQRQHRASRELLAAKKTHTSQIEVIPCKICGDKSSGIHYGVITCEGCKGFFRRSQRCNAAYSCTRQQNCPIDRTSRNRCQHCRLQKCLALGMSRDAVKFGRMSKKQRDSLHAEVQKQLQQRQQQQQEPVVKTPPAGAQGADTLTYTLGLPDGQLPLGSSPDLPEASACPPGLLKASGSGPSYSNNLAKAGLNGASCHLEYSPERGKAEGRESFYSTGSQLTPDRCGLRFEEHRHPGLGELGQGPDSYGSPSFRSTPEAPYASLTEIEHLVQSVCKSYRETCQLRLEDLLRQRSNIFSREEVTGYQRKSMWEMWERCAHHLTEAIQYVVEFAKRLSGFMELCQNDQIVLLKAGAMEVVLVRMCRAYNADNRTVFFEGKYGGMELFRALGCSELISSIFDFSHSLSALHFSEDEIALYTALVLINAHRPGLQEKRKVEQLQYNLELAFHHHLCKTHRQSILAKLPPKGKLRSLCSQHVERLQIFQHLHPIVVQAAFPPLYKELFSTETESPVGLSK
B2: RORa: RAR-related Orphan Receptor α (NR1F1), cDNA driver (protein, UniProt P35398 1-523, looked up)
Nuclear receptor ROR-alpha: MESAPAAPDPAASEPGSSGADAAAGSRETPLNQESARKSEPPAPVRRQSYSSTSRGISVTKKTHTSQIEIIPCKICGDKSSGIHYGVITCEGCKGFFRRSQQSNATYSCPRQKNCLIDRTSRNRCQHCRLQKCLAVGMSRDAVKFGRMSKKQRDSLYAEVQKHRMQQQQRDHQQQPGEAEPLTPTYNISANGLTELHDDLSNYIDGHTPEGSKADSAVSSFYLDIQPSPDQSGLDINGIKPEPICDYTPASGFFPYCSFTNGETSPTVSMAELEHLAQNISKSHLETCQYLREELQQITWQTFLQEEIENYQNKQREVMWQLCAIKITEAIQYVVEFAKRIDGFMELCQNDQIVLLKAGSLEVVFIRMCRAFDSQNNTVYFDGKYASPDVFKSLGCEDFISFVFEFGKSLCSMHLTEDEIALFSAFVLMSADRSWLQEKVKIEKLQQKIQLALQHVLQKNHREDGILTKLICKVSTLRALCGRHTEKLMAFKAIYPDIVRLHFPPLYKELFTSEFEPAMQIDG
B3: HNF4a: Hepatocyte Nuclear Factor α (NR2A1), cDNA driver (protein, UniProt P41235 1-474, looked up)
Hepatocyte nuclear factor …: MRLSKTLVDMDMADYSAALDPAYTTLEFENVQVLTMGNDTSPSEGTNLNAPNSLGVSALCAICGDRATGKHYGASSCDGCKGFFRRSVRKNHMYSCRFSRQCVVDKDKRNQCRYCRLKKCFRAGMKKEAVQNERDRISTRRSSYEDSSLPSINALLQAEVLSRQITSPVSGINGDIRAKKIASIADVCESMKEQLLVLVEWAKYIPAFCELPLDDQVALLRAHAGEHLLLGATKRSMVFKDVLLLGNDYIVPRHCPELAEMSRVSIRILDELVLPFQELQIDDNEYAYLKAIIFFDPDAKGLSDPGKIKRLRSQVQVSLEDYINDRQYDSRGRFGELLLLLPTLQSITWQMIEQIQFIKLFGMAKIDNLLQEMLLGGSPSDAPHAHHPLHPHLMQEHMGTNVIVANTMPTHLSNGQMCEWPRPRGQAATPETPQPSPPGGSGSEPYKLLPGAVATIVKPLSAIPQPTITKQEVI
B4: LXRb: Liver X Receptor β (NR1H2), cDNA driver (protein, UniProt P55055 1-460, looked up)
Oxysterols receptor LXR-beta: MSSPTTSSLDTPLPGNGPPQPGAPSSSPTVKEEGPEPWPGGPDPDVPGTDEASSACSTDWVIPDPEEEPERKRKKGPAPKMLGHELCRVCGDKASGFHYNVLSCEGCKGFFRRSVVRGGARRYACRGGGTCQMDAFMRRKCQQCRLRKCKEAGMREQCVLSEEQIRKKKIRKQQQESQSQSQSPVGPQGSSSSASGPGASPGGSEAGSQGSGEGEGVQLTAAQELMIQQLVAAQLQCNKRSFSDQPKVTPWPLGADPQSRDARQQRFAHFTELAIISVQEIVDFAKQVPGFLQLGREDQIALLKASTIEIMLLETARRYNHETECITFLKDFTYSKDDFHRAGLQVEFINPIFEFSRAMRRLGLDDAEYALLIAINIFSADRPNVQEPGRVEALQQPYVEALLSYTRIKRPQDQLRFPRMLMKLVSLRTLSSVHSEQVFALRLQDKKLPPLLSEIWDVHE

Experiments:
hG6PD promoter = test: NHR-promoter luciferase screen, hG6PD promoter; assay type: cell-based, human; details: for Luc. act., normalized to lacZ / Normalized Luc. act., normalized to control: G6PD promoter reporter, co-transfected HR, without or with its ligand; for Normalized Luc. act., normalized to control: relative to control; for luciferase activity normalized to lacZ activity and to a control, hG6PD: hG6PD promoter-luciferase, CV-1 cells, NHR +/- ligand, control = 1.00
Procedure: (§1) The use, feasibility, and reproducibility of the functional NHR-promoter screen in a 48-well format have been tested validated. Briefly, there were co-expressed 50 ng of each NHR/NHR homodimer or NHR/RXR heterodimer with 100 ng promoter/luciferase construct and 50 ng of LacZ (as a control for transfection efficiency) in CV-1 cells using Fugene HD (Roche) as a transfection reagent (alternatively or additionally, a CMV-YFP construct can be used as a transfection control). Each of the nuclear hormone receptors that were used in these experiments was cloned into a pcDNA3.1 vector and comprised a C-terminally linked V5H6 tag. Twenty-four hours after transfection, appropriate ligands were added, where applicable, (see Table 5 for various ligands and concentrations and after 48 hrs, samples were assayed for luciferase and LacZ activity. To measure for luciferase activity 15 ul of sample was added to 30 ul of luciferase buffer (20 mM tricine, 1.07 mM MgCarbonate, 2.67 mM MgSulfate, 0.1 mM Naz-EDTA, 5 mM DTT, 5 mM ATP, 0.15 mg/ml CoA, 0.5 mM Luciferin), mixed briefly, and run in a Perkin Elmer Victor 5 luminometer. Thus, the functional NHR-promoter screen was used to observe the transcriptional activity of 29 promoters from various physiological pathways including inflammation, lipid and sugar metabolism, cholesterol transport, xenobiotic metabolism, and circadian rhythm.
(§2) The promoters that facilitate transcription of the indicated gene products that were tested using the protocols described herein are listed in the first row of the table. The nuclear hormone receptors and, where applicable, ligands that were assayed for their transcriptional effects on the promoters are listed in the first column of the table. The data represent the luciferase activity of each sample normalized to both the lacZ activity of that sample and to a control, e.g., no NHR or ligand, as customary in the art. As described previously, these normalizations allow the transcriptional activity of each reporter cell to be compared to other samples.
(§3) Tables 7-40 show the transcriptional effects of the hormone receptors, and, where applicable, ligands (orphan receptors are screened without ligand), on each individual promoter. […] The control data of each table are shown in their last rows.

hPOMC promoter = test: NHR-promoter luciferase screen, hPOMC promoter; assay type: cell-based, human; details: for Luc. act., normalized to lacZ / Normalized Luc. act., normalized to control: hPOMC promoter, HR/ligand component; for hPOMC promoter reporter activity: transcription factor +/- ligand, control = 1.00
Procedure: as §1, §2, §3

mPOMC promoter = test: NHR-promoter luciferase screen, mPOMC promoter; assay type: cell-based, mouse; details: for Results of assays of transcription factor (+/- ligand) with mPOMC: Table 6d, luciferase activity relative to control (control = 1.00); for Luc. act., normalized to lacZ / Normalized Luc. act., normalized to control: mPOMC promoter, HR component with or without ligand; for Normalized Luc. act., normalized to control: relative to control
Procedure: as §1, §2, §3

RevErba promoter = test: NHR-promoter luciferase screen, RevErba (RVRa) promoter; assay type: cell-based; design: key to mRevErba promoter reporter activity / Normalized Luc. act., normalized to control: luciferase activity normalized to lacZ and to control (no NHR/ligand); details: for Luc. act., normalized to lacZ / Normalized Luc. act., normalized to control: HR component without or with ligand; for normalized Luc. act. on a logarithmic scale (column without head, Table 33): log10 of activity normalized to control; for mRevErba promoter reporter activity: transcription factor +/- ligand, control = 1.00
Procedure: Briefly, there were co-expressed 50 ng of each NHR/NHR homodimer or NHR/RXR heterodimer with 100 ng promoter/luciferase construct and 50 ng of LacZ (as a control for transfection efficiency) in CV-1 cells using Fugene HD (Roche) as a transfection reagent (alternatively or additionally, a CMV-YFP construct can be used as a transfection control). Each of the nuclear hormone receptors that were used in these experiments was cloned into a pcDNA3.1 vector and comprised a C-terminally linked V5H6 tag.
as §2
The control data of each table are shown in their last rows.

hPPARg1 promoter = test: NHR-promoter luciferase screen, hPPARg1 promoter; assay type: cell-based, human; details: for Luc. act., normalized to lacZ / Normalized Luc. act., normalized to control: PPARG1 promoter, hormone receptor with or without its ligand; for Normalized Luc. act., normalized to control: relative to control; for Results of assays of transcription factor (+/- ligand) with hPPARg1: Table 6d, luciferase activity relative to control (control = 1.00)
Procedure: as §1, §2, §3

Molecule | Luc. act., normalized to lacZ (hG6PD promoter) | Normalized Luc. act., normalized to control (hG6PD promoter) | luciferase activity normalized to lacZ activity and to a control, hG6PD (hG6PD promoter) | Luc. act., normalized to lacZ (hPOMC promoter) | Normalized Luc. act., normalized to control (hPOMC promoter) | hPOMC promoter reporter activity (hPOMC promoter) | Results of assays of transcription factor (+/- ligand) with mPOMC (mPOMC promoter) | Luc. act., normalized to lacZ (mPOMC promoter) | Normalized Luc. act., normalized to control (mPOMC promoter) | Luc. act., normalized to lacZ (RevErba promoter; RVRa promoter) | Normalized Luc. act., normalized to control (RevErba promoter; RVRa promoter) | negative reciprocal of normalized Luc. act. (fold repression; Table 33) (RevErba promoter; RVRa promoter, given only where activity is below control) | normalized Luc. act. on a logarithmic scale (column without head, Table 33) (RevErba promoter; RVRa promoter) | mRevErba promoter reporter activity (RevErba promoter) | Luc. act., normalized to lacZ (hPPARg1 promoter) | Normalized Luc. act., normalized to control (hPPARg1 promoter) | Results of assays of transcription factor (+/- ligand) with hPPARg1 (hPPARg1 promoter)
VDR: Vitamin D Receptor (NR1I1), cDNA driver | 43.1 | 1.2 | 1.15 | 3.8 | 0.9 | 0.90 | 1.16 | 79.8 | 1.2 | 27.5 | 1.0 | −1.018 | −0.01 | 0.98 | 38.1 | 0.6 | 0.55
B1 | 81.5 | 2.2 | 2.18 | 2.1 | 0.5 | 0.50 | 1.30 | 89.5 | 1.3 | 67.79 | 2.4 |  | 0.38 | 2.42 | 81.5 | 1.2 | 1.18
B2 | 74.0 | 2.0 | 1.98 | 1.6 | 0.4 | 0.38 | 2.08 | 143.4 | 2.1 | 86.91 | 3.1 |  | 0.49 | 3.11 | 74.0 | 1.1 | 1.07
B3 | 34.8 | 0.9 | 0.93 | 3.5 | 0.8 | 0.81 | 0.90 | 62.0 | 0.9 | 30.15 | 1.1 |  | 0.03 | 1.08 | 34.8 | 0.5 | 0.51
B4 | 46.8 | 1.3 | 1.25 | 6.3 | 1.5 | 1.46 | 0.88 | 60.8 | 0.9 | 30.9 | 1.1 |  | 0.04 | 1.10 | 37.9 | 0.5 | 0.55
